Biological target: 3Dpol-WT (RNA-dependent RNA polymerase) (Foot-and-mouth disease virus, UniProt P03305 1863-2332)
Assay: fluorescence polarisation anisotropy

Chain of 3Dpol-WT (RNA-dependent RNA polymerase) (P03305 1863-2332): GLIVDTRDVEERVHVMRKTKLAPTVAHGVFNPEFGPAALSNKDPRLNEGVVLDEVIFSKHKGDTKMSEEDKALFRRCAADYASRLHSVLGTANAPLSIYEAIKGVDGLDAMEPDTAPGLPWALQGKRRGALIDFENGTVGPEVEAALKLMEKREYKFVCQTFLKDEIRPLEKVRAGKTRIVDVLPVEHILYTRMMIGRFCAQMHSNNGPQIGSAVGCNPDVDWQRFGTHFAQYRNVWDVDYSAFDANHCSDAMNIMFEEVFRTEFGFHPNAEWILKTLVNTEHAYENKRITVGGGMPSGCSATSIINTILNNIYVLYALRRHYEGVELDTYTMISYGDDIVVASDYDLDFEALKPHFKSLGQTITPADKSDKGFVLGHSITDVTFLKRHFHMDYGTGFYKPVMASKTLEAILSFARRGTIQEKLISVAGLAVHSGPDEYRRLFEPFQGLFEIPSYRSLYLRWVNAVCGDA

B1: 13mer poly-A RNA (ssRNA)
RNA: AAAAAAAAAAAAA
Kd: 5.83 ± 1.3 µM

— publication doi:10.1101/2020.12.17.423260
